According to patent publication US20150191546A1 (University of Texas, published 2015):

Experiments:
[1] = target: T1, recombinant PR1/HLA-A*0201 monomer (human); experiment: ELISA, biotinylated PR1/HLA-A2 on streptavidin, anti-human kappa HRP
T1 construct: Folded recombinant monomer; also called PR1/HLA-A2; PR-1/HLA-A2
Description: An ELISA plate was first coated with 100 μl/well of 5 μg/ml streptavidin (Jackson ImmunoResearch, West Grove, Pa.) in PBS. After washing wells with Wash Buffer (PBS containing 0.05% Tween 20) and blocking with Block Buffer, 50 μl/well of 2 μg/ml biotinylated PR1/HLA-A2, which had been provided by Dr. Molldrem, was added. After 30 min incubation at room temperature, the ELISA plate was washed with Wash Buffer. […] After incubating the ELISA plate for 1 hr at room temperature and washing with Wash Buffer, bound antibodies were detected using 100 μl/well of 1/2,000-diluted HRP-conjugated goat anti-human kappa chain polyclonal antibody. After incubating for 30 min at room temperature and washing with Wash Buffer, color development was performed by adding 100 μl/well of ABTS substrate. Color development was stopped by adding 100 μl/well of 2% oxalic acid. Absorbance was read at 405 nm.

[2] = target: T1, recombinant PR1/HLA-A*0201 monomer; experiment: ELISA on PR1/HLA-A2 monomer-coated plate, anti-human detection [panel B]
Excerpt: (§1) The inventors used recombinant PR1/HLA-A2 monomer-coated plates to capture the antibody, and anti-human antibodies were used in a colorimetric assay to determine the bound fraction by optical density (OD).

[3] = target: T1, recombinant PR1/HLA-A*0201 monomer; experiment: ELISA on recombinant PR1/HLA-A2 monomer-coated plates; Hu8F4-2 (Hu2)
Excerpt: as §1

[4] = target: T1, recombinant PR1/HLA-A*0201 monomer; experiment: ELISA on recombinant PR1/HLA-A2 monomer-coated plates; Hu8F4-1 (Hu1)
Excerpt: as §1

[5] = target: T2, PR1/HLA-A*0201 on the cell surface (human); experiment: flow cytometry, 8F4 staining of MDA-MB-231 cells after 24 h with NE
T2 construct: also called PR1-pulsed T2 cells; PR1/HLA-A2 on HLA-A2+ AML blasts
Description: (§2) Mean 6 SEM fold increase of the MFI of PR1/HLA-A2 versus unpulsed cells is shown from duplicate experiments. ANOVA followed by Tukey test was performed using Prism 5.0 software (*p=0.01, **p, 0.0001).

[6] = target: T1, recombinant PR1/HLA-A*0201 monomer; experiment: SPR (Biacore), 8F4 immobilized/captured, soluble PR1/HLA-A*0201 as analyte
[7] = target: T2, PR1/HLA-A*0201 on the cell surface; experiment: flow cytometry, 8F4 staining of MDA-MB-231 cells after 24 h with P3
Description: as §2

[8] = target: T1, recombinant PR1/HLA-A*0201 monomer; experiment: SPR (BIAcore 3000), antibody captured on anti-mouse surface, peptide/HLA-A2 as analyte, 25 C; inset table, column KD (the text and the box under the plot round it to 9.9 nM)
Description: The test antibodies were captured onto anti-mouse antibody-coated surfaces. The analyte, peptide/HLA-A2, was diluted to 100 nM and tested in duplicate for binding to the antibody-coated surfaces. The analysis was performed at 25 C using PBS, 0.005% Tween-20, 0.1 mg/ml BSA, pH 7.4 as the running buffer.

B1: Hu8F4-2 humanized 8F4 IgG1/kappa antibody (Hu8F4 VH and VL2) (antibody)
heavy: not shown
light: DIQMTQSPSSLSASVGDRVTITCKASQDVSTAVAWYQQKPGKAPKLLIYSTSYRYTGVPSRFSGSGSGTDFTFTISSLQPEDIATYYCQQHFITPPTFGGGTKVEIKRTVAAPSVFIFPPSDEQLKSGTASVVCLLNNFYPREAKVQWKVDNALQSGNSQESVTEQDSKDSTYSLSSTLTLSKADYEKHKVYACEVTHQGLSSPVTKSFNRGEC
notes: VL2 has Asp instead of Val at position 70 of VL1; also called Hu2-8F4; Hu2
In the case of B1, the EC50 [1] is reported as 0.07 µg/mL, the “EC50 (read off the curve)” value [2] is reported as roughly 0.008 µg/mL and the Kd [3] is reported as 7.8 nM.

B2: Hu8F4-1 humanized 8F4 IgG1/kappa antibody (Hu8F4 VH and VL1) (antibody, V domains shown)
VH: EVQLVESGGGLVQPGGSLRLSCAASGFTFSGYGMSWVRQAPGKGLEWVATISSGGSYTYYPDSVKGRFTISRDNAKNSLYLQMNSLRAEDTAVYYCARHEGGYYGSSPAWFVYWGQGTMVTVSS
VL: DIQMTQSPSSLSASVGDRVTITCKASQDVSTAVAWYQQKPGKAPKLLIYSTSYRYTGVPSRFSGSGSGTVFTFTISSLQPEDIATYYCQQHFITPPTFGGGTKVEIKR
notes: Human IgG1/kappa; also called Hu1-8F4; Hu1
In the case of B2, the EC50 [1] is reported as 0.05 µg/mL, the “EC50 (read off the curve)” value [2] is reported as roughly 0.008 µg/mL and the Kd [4] is reported as 7.7 nM.

B3: Hu8F4-2-AA humanized 8F4 IgG1-AA/kappa antibody (antibody)
heavy: not shown
light: DIQMTQSPSSLSASVGDRVTITCKASQDVSTAVAWYQQKPGKAPKLLIYSTSYRYTGVPSRFSGSGSGTDFTFTISSLQPEDIATYYCQQHFITPPTFGGGTKVEIKRTVAAPSVFIFPPSDEQLKSGTASVVCLLNNFYPREAKVQWKVDNALQSGNSQESVTEQDSKDSTYSLSSTLTLSKADYEKHKVYACEVTHQGLSSPVTKSFNRGEC
notes: Hu8F4 VH and VL2 on human IgG1 with Leu234Ala and Leu235Ala (Eu numbering); Signal peptide may be included
An EC50 [1] of 0.07 µg/mL was found for B3 in this work.

B4: 8F4 mouse monoclonal antibody (IgG2a-kappa, anti-PR1/HLA-A*0201) (antibody, V domains shown)
VH: EVQLVESGGDLVKPGGSLKLSCAASGFTFSGYGMSWVRQTPDKRLEWVATISSGGSYTYYPDSVKGRFTISRDNAKNTLYLQMSSLKSEDTAMYYCARHEGGYYGSSPAWFVYWGQGTLVTLSA
VL: DIVMTQSHKFMSTSVGDRVSITCKASQDVSTAVAWYQQKPGQSPKLLIYSTSYRYTGVPDRFTGSGSGTVFTFTINSVQAEDLAVYYCQQHFITPPTFGGGTKLEIK
modifications: In the flow cytometry and confocal assays the antibody carried an Alexa Fluor 647 label; the letters do not carry it.
notes: Mouse IgG2a-kappa from hybridoma; Used with Alexa-647 label in flow cytometry and confocal assays; also called mouse 8F4; 8F4-4
B4 was tested, and the “fold increase in PR1/HLA-A2 (8F4 MFI) versus unpulsed cells” value [5] was 2.5 fold, the Kd [6] was 9.9 nM and the “fold increase in PR1/HLA-A2 (8F4 MFI) versus unpulsed cells” value [7] was 3 fold. It also gave a Kd [8] of 9.85 nM.

B5: Ch8F4 chimeric 8F4 IgG1/kappa antibody (antibody, V domains shown)
VH: EVQLVESGGDLVKPGGSLKLSCAASGFTFSGYGMSWVRQTPDKRLEWVATISSGGSYTYYPDSVKGRFTISRDNAKNTLYLQMSSLKSEDTAMYYCARHEGGYYGSSPAWFVYWGQGTLVTLSA
VL: DIVMTQSHKFMSTSVGDRVSITCKASQDVSTAVAWYQQKPGQSPKLLIYSTSYRYTGVPDRFTGSGSGTVFTFTINSVQAEDLAVYYCQQHFITPPTFGGGTKLEIKR
notes: Mouse 8F4 VH/VL on human gamma-1 and kappa constant regions
In the case of B5, the EC50 [1] is reported as 0.054 µg/mL and the “EC50 (read off the curve)” value [2] is reported as roughly 0.008 µg/mL.
